According to patent US20230038638A1, “COMPLEMENT FACTOR I-RELATED COMPOSITIONS AND METHODS” (published 2023):

Experiments:
[1] = molecular target: T1, human C4b (human) (UniProt P0C0L4)
T1 sequence: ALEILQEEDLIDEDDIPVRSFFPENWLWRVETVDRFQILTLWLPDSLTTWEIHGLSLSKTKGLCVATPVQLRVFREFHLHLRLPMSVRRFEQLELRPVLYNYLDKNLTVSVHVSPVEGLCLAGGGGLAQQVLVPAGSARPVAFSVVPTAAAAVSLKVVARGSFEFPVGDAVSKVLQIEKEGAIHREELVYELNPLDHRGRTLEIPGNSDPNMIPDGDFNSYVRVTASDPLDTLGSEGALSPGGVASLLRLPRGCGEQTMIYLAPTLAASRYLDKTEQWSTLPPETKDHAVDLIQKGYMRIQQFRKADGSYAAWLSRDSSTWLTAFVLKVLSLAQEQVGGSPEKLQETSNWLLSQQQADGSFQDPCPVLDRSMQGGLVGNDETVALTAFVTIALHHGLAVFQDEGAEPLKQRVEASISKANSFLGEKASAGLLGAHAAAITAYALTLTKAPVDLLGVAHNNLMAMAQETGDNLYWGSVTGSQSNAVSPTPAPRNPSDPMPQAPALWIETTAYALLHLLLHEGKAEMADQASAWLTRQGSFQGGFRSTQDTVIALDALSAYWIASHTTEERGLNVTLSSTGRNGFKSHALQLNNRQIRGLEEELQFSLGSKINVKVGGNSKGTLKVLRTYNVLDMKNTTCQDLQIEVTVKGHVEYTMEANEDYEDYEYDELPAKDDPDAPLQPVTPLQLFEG

[2] = molecular target: soluble human C3b (human) (UniProt P01024)

Row | Substance | C4b Screen Ref Fold (fold of CFI-HSA wild type) [1] | iC3b Screen Ref Fold (fold of CFI-HSA wild type) [2]
1 | CFI-HSA K534W (enzyme) | 2.19 | 0.81
2 | CFI-HSA K534Y (enzyme) | 1.39 | 1.42
3 | CFI-HSA L307A (enzyme) | 4.05 | 0.73
4 | CFI-HSA L307S (enzyme) | 2.94 | 1.54
5 | CFI-HSA N531G; E457G; E461Q; R462K (enzyme) | 6.67 | 1.55
6 | CFI-HSA N531G; E457G; F464Y (enzyme) | 6.55 | 1.24
7 | CFI-HSA N531G; E457G; R462K (enzyme) | 7.02 | 1.92
8 | CFI-HSA N531G; E457G; R462K; F464Y (enzyme) | 6.38 | 1.32
9 | CFI-HSA N531G; E461Q (enzyme) | 6.13 | 1.45
10 | CFI-HSA N531G; E461Q; F464Y (enzyme) | 6.83 | 1.76
11 | CFI-HSA N531G; E461Q; R462K (enzyme) | 6.42 | 2.21
12 | CFI-HSA N531G; E461Q; R462K; F464Y (enzyme) | 6.37 | 1.54
13 | CFI-HSA N531G; F464Y (enzyme) | 6.48 | 1.47
14 | CFI-HSA N531G; P535A; S507A (enzyme) | 0.26 | -0.02
15 | CFI-HSA N531G; P535A; S507A; GGSSGG (SEQ ID NO: 6); CCP_1-4 (enzyme) | 0.2 | -0.02
16 | CFI-HSA N531G; R462K (enzyme) | 6.13 | 1.17
17 | CFI-HSA N531G; R462K; F464Y (enzyme) | 6.27 | 0.78
18 | CFI-HSA P535D (enzyme) | 0.14 | 0.01
19 | CFI-HSA P535E (enzyme) | 0.45 | 0.24

Row | Substance | C4b Screen Ref Fold (fold of CFI-HSA wild type) [1] | iC3b Screen Ref Fold (fold of CFI-HSA wild type) [2]
20 | CFI-HSA P535F (enzyme) | 0.19 | 0.3
21 | CFI-HSA P535H (enzyme) | 0.22 | 0.42
22 | CFI-HSA P535I (enzyme) | 0.62 | 0.65
23 | CFI-HSA P535L (enzyme) | 0.27 | 0.53
24 | CFI-HSA P535M (enzyme) | 0.68 | 0.6
25 | CFI-HSA P535N (enzyme) | 0.33 | 0.08
26 | CFI-HSA P535Q (enzyme) | 1.24 | 0.37
27 | CFI-HSA P535R (enzyme) | 1.24 | 0.77
28 | CFI-HSA P535S (enzyme) | 2.14 | 0.58
29 | CFI-HSA P535T (enzyme) | 0.4 | 0.17
30 | CFI-HSA P535V (enzyme) | 1.29 | 0.57
31 | CFI-HSA P535W (enzyme) | 0.14 | 0.29
32 | CFI-HSA R462K; F464Y (enzyme) | 0.83 | 0.11
33 | CFI-HSA S507A; GGSSGG (SEQ ID NO: 6); CCP_1-4 (enzyme) | 0.43 | 0
34 | CFI-HSA T346K; Y408L; K504D; E530K; N531G (enzyme) | 0.04 | 0.29
35 | CFI-HSA T346K; Y408L; N531G (enzyme) | 4.81 | 1.1
36 | CFI-HSA T346R; Y408L; K504E; E530R; N531G (enzyme) | 0.1 | 0.67
37 | CFI-HSA T407G (enzyme) | 0.11 | 0.59
38 | CFI-HSA T407G; E457G (enzyme) | 0.42 | 0.89

Row | Substance | C4b Screen Ref Fold (fold of CFI-HSA wild type) [1] | iC3b Screen Ref Fold (fold of CFI-HSA wild type) [2]
39 | CFI-HSA T407G; N531G (enzyme) | 0.83 | 0.85
40 | CFI-HSA T407G; Y408L; E457G (enzyme) | 0.12 | 0.74
41 | CFI-HSA T407G; Y408L; E457G; N531G (enzyme) | 0.67 | 0.56
42 | CFI-HSA T407G; Y408L; N531G (enzyme) | 0.46 | 1.43
43 | CFI-HSA Y408L; E457G; E461Q (enzyme) | 6.36 | 1.18
44 | CFI-HSA Y408L; E457G; E461Q; F464Y (enzyme) | 5.88 | 1.45
45 | CFI-HSA Y408L; E457G; F464Y (enzyme) | 5.57 | 1.13
46 | CFI-HSA Y408L; E457G; R462K (enzyme) | 5.24 | 1.02
47 | CFI-HSA Y408L; E457G; R462K; F464Y (enzyme) | 5.5 | 0.89
48 | CFI-HSA Y408L; E457G; S507A; N531G (enzyme) | 0.12 | -0.01
49 | CFI-HSA Y408L; E461Q (enzyme) | 4.44 | 1.03
50 | CFI-HSA Y408L; E461Q; F464Y (enzyme) | 4.83 | 1.51
51 | CFI-HSA Y408L; E461Q; R462K (enzyme) | 2.53 | 1.33
52 | CFI-HSA Y408L; E461Q; R462K; F464Y (enzyme) | 2.43 | 0.74
53 | CFI-HSA Y408L; E530K; N531G (enzyme) | 4.89 | 1.12
54 | CFI-HSA Y408L; E530R; N531G (enzyme) | 4.67 | 1.09
55 | CFI-HSA Y408L; F464Y (enzyme) | 0.67 | 0.55
56 | CFI-HSA Y408L; N531G (enzyme) | 6.44 | 1.29
57 | CFI-HSA Y408L; N531G; E457G; E461Q; R462K; F464Y; S507A (enzyme) | 0.04 | -0.01
